Measured values from US20250276043A1, “Pharmaceutical Composition Containing GLP-1 Compound” (Gan & Lee Pharmaceuticals Co., Ltd., priority 2021, published 2025).

Key:
Kkay mice = test: Long-term pharmacodynamic study in type 2 diabetes Kkay mice (Example 18); format: in vivo; settings: subcutaneous, 100 and 300 μg/kg; for Reduction in HbA1c (FIG. 5c): 48 hours after the final administration; for Hypoglycemic effect, blood glucose and AUC (FIGS. 5a-5b): once every 2 days, 16 doses
Protocol: Compound 5 from Example 5 and Compound 2 from Example 2 were tested on type 2 diabetes Kkay mice. The mice were administered different doses of Compound 5 and Compound 2, at 100 and 300 μg/kg, respectively. The effects of the GLP-1 compounds in the GLP-1 pharmaceutical composition of the present invention on reducing blood glucose levels and HbA1c were measured.
Male Kkay mice, 12-14 weeks old, were housed in suitable cages under barrier conditions with free access to standard food and purified water. The environmental conditions were controlled at a relative humidity of 40%-60% and a temperature of 22° C.-24° C. After an adaptation period of 1-2 weeks, the mice were used for the experiment.
Basal blood glucose levels were assessed on the day of the experiment, and the mice were weighed. Based on random blood glucose and body weight, the diabetic mice were divided into a solvent group or a treatment group. The mice in the treatment group received subcutaneous injections of the GLP-1 compounds at doses of 100 and 300 μg/kg. The solvent consisted of propylene glycol (14 mg/ml), phenol (5.5 mg/ml), and disodium hydrogen phosphate (1.133 mg/ml) at pH 7.4.
Subcutaneous administration was performed at the nape of the neck (50 μl/10 g body weight). The GLP-1 compound in the GLP-1 pharmaceutical composition of the present invention or the solvent were administered at approximately 10:00 am (time 0), once every 2 days for a total of 16 doses. Blood glucose levels in the mice were evaluated at 3 hours, 6 hours, 1 day, and 2 days after the initial administration. HbA1c was measured 48 hours after the final administration using EDTA anticoagulant.

[1] = Chemical stability: related substances by HPLC after storage (Example 17); format: physicochemical
Protocol: The content of related impurities was determined using high-performance liquid chromatography (HPLC) on a Waters Kromasil 100-3.5-C8 (4.6*250 mm) column. The column temperature was set at 35° C., and the sample chamber temperature was set at 5° C. The elution was performed at a flow rate of 1.0 ml/min. The eluent consisted of the following components: • Phase A: 90 mM potassium dihydrogen phosphate and 10% acetonitrile (v/v), pH 2.4 • Phase B: 75% acetonitrile (v/v)
The gradient was as follows: linear change of 75%/25% A/B to 55%/45% A/B from 0 to 5 minutes, linear change from 5 to 12 minutes to 50%/50% A/B, linear change from 12 to 42 minutes to 40%/60% A/B, linear change from 42 to 60 minutes to 10%/90% A/B, linear change from 60 to 61 minutes to 75%/25% A/B, and steady gradient of 75%/25% A/B from 61 to 70 minutes.
Detection wavelength was set at 214 nm, flow rate at 1.0 ml/min, and injection volume at 15 μl.

[2] = oral semaglutide tablets (RYBELSUS) with SNAC, clinical studies; cited from earlier work

Row | Substance | Reduction in HbA1c (FIG. 5c) (Kkay mice) | Hypoglycemic effect, blood glucose and AUC (FIGS. 5a-5b) (Kkay mice) | Maximum individual impurity % ([1]; 25° C./60% RH, 15 month) | Purity of compound 5 % ([1]; 25° C./60% RH, 15 month) | Total impurities % ([1]; 25° C./60% RH, 15 month) | Maximum individual impurity % ([1]; 30° C./65% RH, 1 month) | Purity of compound 5 % ([1]; 30° C./65% RH, 1 month) | Total impurities % ([1]; 30° C./65% RH, 1 month) | Maximum individual impurity % ([1]; 30° C./65% RH, 2 month) | Purity of compound 5 % ([1]; 30° C./65% RH, 2 month) | Total impurities % ([1]; 30° C./65% RH, 2 month) | Maximum individual impurity % ([1]; 30° C./65% RH, 3 month) | Purity of compound 5 % ([1]; 30° C./65% RH, 3 month) | Total impurities % ([1]; 30° C./65% RH, 3 month) | Maximum individual impurity % ([1]; 30° C./65% RH, time 0) | Purity of compound 5 % ([1]; 30° C./65% RH, time 0) | Total impurities % ([1]; 30° C./65% RH, time 0) | Bioavailability [2]
1 | N-ε^26-[2-(2-[2-(2-[2-(2-[4-(21-carboxyheneicosanoylamino)-4(S) -carboxybutanoylamino]ethoxy)ethoxy]acetylamino)ethoxy]ethoxy)acetyl][Gly8, Arg34]GLP-1-(7-37) peptide [Compound 5] | significant reduction in HbA1c | significant hypoglycemic effects | 0.97% | 96.14% | 3.86% | 0.76% | 96.85% | 3.15% | 1.03% | 96.67% | 3.33% | 0.93% | 95.19% | 4.81% | 0.73% | 96.5% | 3.5% | 
2 | N-ε^26-[2-(2-[2-(4-[19-carboxynonadecanoylamino]-4(S) -carboxybutanoylamino)ethoxy]ethoxy)acetyl][Gly8, Arg34]GLP-1-(7-37) peptide [Compound 2] | significant reduction in HbA1c | significant hypoglycemic effects |  |  |  |  |  |  |  |  |  |  |  |  |  |  |  | 
3 | semaglutide |  |  |  |  |  |  |  |  |  |  |  |  |  |  |  |  |  | around 1%
